Source: paper PMC5836512 (Molecular cell, 2018)
Where two headings read alike, the source gives them in different places.

Experiments:
[1] = target: T1, Cul1^AMC•Rbx1 (UniProt Q13616 1-776; P62877 1-108, AMC on the C-terminus (GGGG^AMC peptide joined by sortase)); assay: FRET or BRET
[2] = target: T2, Cul1•^GSTRbx1 (UniProt Q13616 1-776; P62877 1-108); assay: pull-down
[3] = target: T1, Cul1^AMC•Rbx1; assay: FRET or BRET; remark: listed apart in the source
[4] = target: T2, Cul1•^GSTRbx1; assay: pull-down; remark: listed apart in the source
[5] = target: T2, Cul1•^GSTRbx1; assay: pull-down; remark: listed apart in the source

T2 sequence (Q13616 whole entry, chain 1 of 2): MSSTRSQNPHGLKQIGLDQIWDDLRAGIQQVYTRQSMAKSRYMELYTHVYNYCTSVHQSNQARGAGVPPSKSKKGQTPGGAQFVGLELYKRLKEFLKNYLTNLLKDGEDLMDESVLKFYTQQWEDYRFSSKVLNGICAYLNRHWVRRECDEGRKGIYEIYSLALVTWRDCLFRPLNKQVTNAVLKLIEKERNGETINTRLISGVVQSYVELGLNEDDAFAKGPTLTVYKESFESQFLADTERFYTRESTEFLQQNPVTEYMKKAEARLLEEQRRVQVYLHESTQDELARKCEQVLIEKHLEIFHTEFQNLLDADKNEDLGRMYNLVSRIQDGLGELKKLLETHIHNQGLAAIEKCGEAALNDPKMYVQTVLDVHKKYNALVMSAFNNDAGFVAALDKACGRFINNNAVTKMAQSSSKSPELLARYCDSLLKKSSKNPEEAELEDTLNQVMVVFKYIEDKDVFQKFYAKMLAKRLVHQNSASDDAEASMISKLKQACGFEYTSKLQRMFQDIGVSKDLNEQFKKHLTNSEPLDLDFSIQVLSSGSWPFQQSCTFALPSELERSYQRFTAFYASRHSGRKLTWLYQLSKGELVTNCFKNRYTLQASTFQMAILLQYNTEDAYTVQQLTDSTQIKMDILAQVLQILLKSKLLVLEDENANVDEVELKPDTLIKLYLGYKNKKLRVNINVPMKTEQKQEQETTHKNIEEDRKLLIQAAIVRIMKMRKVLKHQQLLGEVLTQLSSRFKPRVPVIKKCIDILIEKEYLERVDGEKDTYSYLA
T2 sequence (P62877 whole entry, chain 2 of 2): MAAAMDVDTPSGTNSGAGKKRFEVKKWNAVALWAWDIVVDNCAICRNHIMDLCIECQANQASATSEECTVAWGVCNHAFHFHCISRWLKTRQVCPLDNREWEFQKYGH
T1 sequence (Q13616 whole entry, chain 1 of 2): as the sequence (Q13616 whole entry, chain 1 of 2) above
T1 sequence (P62877 whole entry, chain 2 of 2): as the sequence (P62877 whole entry, chain 2 of 2) above

B1: ^ΔH1Cand1 (domain or fragment, UniProt Q86VP6 15-1230, looked up)
chain: MTSSDKDFRFMATNDLMTELQKDSIKLDDDSERKVVKMILKLLEDKNGEVQNLAVKCLGPLVSKVKEYQVETIVDTLCTNMLSDKEQLRDISSIGLKTVIGELPPASSGSALAANVCKKITGRLTSAIAKQEDVSVQLEALDIMADMLSRQGGLLVNFHPSILTCLLPQLTSPRLAVRKRTIIALGHLVMSCGNIVFVDLIEHLLSELSKNDSMSTTRTYIQCIAAISRQAGHRIGEYLEKIIPLVVKFCNVDDDELREYCIQAFESFVRRCPKEVYPHVSTIINICLKYLTYDPNYNYDDEDEDENAMDADGGDDDDQGSDDEYSDDDDMSWKVRRAAAKCLDAVVSTRHEMLPEFYKTVSPALISRFKEREENVKADVFHAYLSLLKQTRPVQSWLCDPDAMEQGETPLTMLQSQVPNIVKALHKQMKEKSVKTRQCCFNMLTELVNVLPGALTQHIPVLVPGIIFSLNDKSSSSNLKIDALSCLYVILCNHSPQVFHPHVQALVPPVVACVGDPFYKITSEALLVTQQLVKVIRPLDQPSSFDATPYIKDLFTCTIKRLKAADIDQEVKERAISCMGQIICNLGDNLGSDLPNTLQIFLERLKNEITRLTTVKALTLIAGSPLKIDLRPVLGEGVPILASFLRKNQRALKLGTLSALDILIKNYSDSLTAAMIDAVLDELPPLISESDMHVSQMAISFLTTLAKVYPSSLSKISGSILNELIGLVRSPLLQGGALSAMLDFFQALVVTGTNNLGYMDLLRMLTGPVYSQSTALTHKQSYYSIAKCVAALTRACPKEGPAVVGQFIQDVKNSRSTDSIRLLALLSLGEVGHHIDLSGQLELKSVILEAFSSPSEEVKSAASYALGSISVGNLPEYLPFVLQEITSQPKRQYLLLHSLKEIISSASVVGLKPYVENIWALLLKHCECAEEGTRNVVAECLGKLTLIDPETLLPRLKGYLISGSSYARSSVVTAVKFTISDHPQPIDPLLKNCIGDFLKTLEDPDLNVRRVALVTFNSAAHNKPSLIRDLLDTVLPHLYNETKVRKELIREVEMGPFKHTVDDGLDIRKAAFECMYTLLDSCLDRLDIFEFLNHVEDGLKDHYDIKMLTFLMLVRLSTLCPSAVLQRLDRLVEPLRATCTTKVKANSVKQEFEKQDELKRSAMRAVAALLTIPEAEKSPLMSEFQSQISSNPELAAIFESIQKDSSSTNLESMDTS
fold of koff (fast phase) over WT Cand1 [1]: 21 fold
fold increase of KD over WT Cand1 [2]: ~4.5 fold

B2: ^FlAsHΔH1Cand1 (domain or fragment, UniProt Q86VP6 15-1230, looked up)
chain: B1 chain
modifications: FlAsH (Lumio Green) on the N-terminal tetracysteine tag
Kd [3]: 0.7 pM

B3: Cand1^1-603 (domain or fragment, UniProt Q86VP6 1-603, looked up)
chain: MASASYHISNLLEKMTSSDKDFRFMATNDLMTELQKDSIKLDDDSERKVVKMILKLLEDKNGEVQNLAVKCLGPLVSKVKEYQVETIVDTLCTNMLSDKEQLRDISSIGLKTVIGELPPASSGSALAANVCKKITGRLTSAIAKQEDVSVQLEALDIMADMLSRQGGLLVNFHPSILTCLLPQLTSPRLAVRKRTIIALGHLVMSCGNIVFVDLIEHLLSELSKNDSMSTTRTYIQCIAAISRQAGHRIGEYLEKIIPLVVKFCNVDDDELREYCIQAFESFVRRCPKEVYPHVSTIINICLKYLTYDPNYNYDDEDEDENAMDADGGDDDDQGSDDEYSDDDDMSWKVRRAAAKCLDAVVSTRHEMLPEFYKTVSPALISRFKEREENVKADVFHAYLSLLKQTRPVQSWLCDPDAMEQGETPLTMLQSQVPNIVKALHKQMKEKSVKTRQCCFNMLTELVNVLPGALTQHIPVLVPGIIFSLNDKSSSSNLKIDALSCLYVILCNHSPQVFHPHVQALVPPVVACVGDPFYKITSEALLVTQQLVKVIRPLDQPSSFDATPYIKDLFTCTIKRLKAADIDQEVKERAISCMGQIICNLGDN
binding result [4]: binds

B4: Cand1 (natural protein, UniProt Q86VP6 1-1230, looked up)
chain: MASASYHISNLLEKMTSSDKDFRFMATNDLMTELQKDSIKLDDDSERKVVKMILKLLEDKNGEVQNLAVKCLGPLVSKVKEYQVETIVDTLCTNMLSDKEQLRDISSIGLKTVIGELPPASSGSALAANVCKKITGRLTSAIAKQEDVSVQLEALDIMADMLSRQGGLLVNFHPSILTCLLPQLTSPRLAVRKRTIIALGHLVMSCGNIVFVDLIEHLLSELSKNDSMSTTRTYIQCIAAISRQAGHRIGEYLEKIIPLVVKFCNVDDDELREYCIQAFESFVRRCPKEVYPHVSTIINICLKYLTYDPNYNYDDEDEDENAMDADGGDDDDQGSDDEYSDDDDMSWKVRRAAAKCLDAVVSTRHEMLPEFYKTVSPALISRFKEREENVKADVFHAYLSLLKQTRPVQSWLCDPDAMEQGETPLTMLQSQVPNIVKALHKQMKEKSVKTRQCCFNMLTELVNVLPGALTQHIPVLVPGIIFSLNDKSSSSNLKIDALSCLYVILCNHSPQVFHPHVQALVPPVVACVGDPFYKITSEALLVTQQLVKVIRPLDQPSSFDATPYIKDLFTCTIKRLKAADIDQEVKERAISCMGQIICNLGDNLGSDLPNTLQIFLERLKNEITRLTTVKALTLIAGSPLKIDLRPVLGEGVPILASFLRKNQRALKLGTLSALDILIKNYSDSLTAAMIDAVLDELPPLISESDMHVSQMAISFLTTLAKVYPSSLSKISGSILNELIGLVRSPLLQGGALSAMLDFFQALVVTGTNNLGYMDLLRMLTGPVYSQSTALTHKQSYYSIAKCVAALTRACPKEGPAVVGQFIQDVKNSRSTDSIRLLALLSLGEVGHHIDLSGQLELKSVILEAFSSPSEEVKSAASYALGSISVGNLPEYLPFVLQEITSQPKRQYLLLHSLKEIISSASVVGLKPYVENIWALLLKHCECAEEGTRNVVAECLGKLTLIDPETLLPRLKGYLISGSSYARSSVVTAVKFTISDHPQPIDPLLKNCIGDFLKTLEDPDLNVRRVALVTFNSAAHNKPSLIRDLLDTVLPHLYNETKVRKELIREVEMGPFKHTVDDGLDIRKAAFECMYTLLDSCLDRLDIFEFLNHVEDGLKDHYDIKMLTFLMLVRLSTLCPSAVLQRLDRLVEPLRATCTTKVKANSVKQEFEKQDELKRSAMRAVAALLTIPEAEKSPLMSEFQSQISSNPELAAIFESIQKDSSSTNLESMDTS
binding result [5]: binds
